Experimental data as given in the Human Domainome abundance scans (Beltran et al. 2025).
± gives the uncertainty stated by the source.

B1: Gamma-crystallin C, residues 91 to 170; numbered along this chain, P07315 (parent)
chain: RLYEREDHKGLMMELSEDCPSIQDRFHLSEIRSLHVLEGCWVLYELPNYRGRQYLLRPQEYRRCQDWGAMDAKAGSLRRV

Variants of: B1
Assay: abundance fitness (aPCA) (normalised: wild type 0, dead -1); higher = more abundant; growth selection in yeast, the domain comes from the species named
Settings: Homo sapiens

Abundance fitness: each site, then its substitutions
I31: T -0.789 ± 0.14; W -0.848 ± 0.16
R32: A -0.302 ± 0.071; C -0.178 ± 0.1; D -0.89 ± 0.42; E -0.478 ± 0.18; F -0.683 ± 0.23; G 0.082 ± 0.061; H 0.009 ± 0.22; I -0.587 ± 0.35; K -0.018 ± 0.1; L -0.359 ± 0.088; M -0.412 ± 0.23; N -0.146 ± 0.1; P -0.146 ± 0.087; Q -0.279 ± 0.089; S -0.466 ± 0.08; V -0.808 ± 0.14; W -0.631 ± 0.14; Y -0.417 ± 0.21
S33: D -1.07 ± 0.4; F -0.99 ± 0.1; G -0.872 ± 0.1; H -0.933 ± 0.5; I -0.492 ± 0.32; K -0.957 ± 0.5; L -0.865 ± 0.15; M -0.673 ± 0.32; Q -1.03 ± 0.31; R -0.9 ± 0.12; T -1.04 ± 0.26; V -1.01 ± 0.26; W -0.98 ± 0.25; Y -0.424 ± 0.24
L34: A -0.064 ± 0.065; C -0.161 ± 0.08; D -0.579 ± 0.27; E -0.537 ± 0.12; F -0.097 ± 0.097; G -0.725 ± 0.077; I 0.056 ± 0.077; M 0.027 ± 0.093; Q -0.781 ± 0.45; S -0.897 ± 0.13; T -0.848 ± 0.26; V -0.043 ± 0.064; W -0.486 ± 0.054; Y -0.572 ± 0.31
H35: A -0.053 ± 0.057; C -0.206 ± 0.076; D -0.107 ± 0.086; E 0.139 ± 0.091; F -0.325 ± 0.1; G -0.845 ± 0.12; I -0.004 ± 0.1; K -0.029 ± 0.1; L -0.15 ± 0.06; M -0.222 ± 0.087; N -0.09 ± 0.11; P -0.789 ± 0.32; S -0.05 ± 0.056; T 0.081 ± 0.069; V 0.036 ± 0.061; W -0.354 ± 0.12; Y -0.202 ± 0.14
V36: A -0.783 ± 0.17; C -0.836 ± 0.17; E -0.88 ± 0.36; G -0.76 ± 0.095; I -0.013 ± 0.089; L -0.632 ± 0.09; M -0.742 ± 0.27; N -0.772 ± 0.3; Q -0.713 ± 0.23; R -1.08 ± 0.28; S -0.969 ± 0.35; W -0.788 ± 0.12; Y -0.947 ± 0.5
L37: A -0.553 ± 0.1; C -0.578 ± 0.34; D -0.254 ± 0.12; E -0.481 ± 0.12; F -0.263 ± 0.099; H -0.351 ± 0.12; I -0.062 ± 0.13; K -0.136 ± 0.16; M -0.158 ± 0.087; N -0.363 ± 0.14; P -0.813 ± 0.2; Q -0.256 ± 0.13; S -0.372 ± 0.079; T -0.326 ± 0.11; V -0.033 ± 0.06; W -0.799 ± 0.15; Y -0.3 ± 0.12
E38: A -0.059 ± 0.069; C -0.242 ± 0.077; D 0.013 ± 0.069; F -0.216 ± 0.091; G -0.186 ± 0.044; H -0.119 ± 0.13; I -0.711 ± 0.25; K -0.083 ± 0.12; L -0.379 ± 0.073; M -0.222 ± 0.097; N 0.102 ± 0.16; P -0.642 ± 0.12; Q 0.171 ± 0.13; S -0.015 ± 0.044; V -0.222 ± 0.053
G39: A -0.56 ± 0.095; C -0.536 ± 0.088; D -0.298 ± 0.13; E -0.186 ± 0.089; F -0.759 ± 0.082; H -0.151 ± 0.14; L -0.89 ± 0.17; M -0.93 ± 0.41; N -0.65 ± 0.23; P -0.798 ± 0.31; Q -0.853 ± 0.33; T -0.892 ± 0.19; V -0.924 ± 0.16; W -0.94 ± 0.25; Y -0.566 ± 0.43
C40: A -0.025 ± 0.065; D 0.058 ± 0.086; E 0.052 ± 0.081; G -0.186 ± 0.051; H -0.09 ± 0.16; I -0.222 ± 0.2; K -0.202 ± 0.16; L -0.042 ± 0.065; N 0.119 ± 0.14; P -0.446 ± 0.11; Q 0.055 ± 0.1; R -0.138 ± 0.072; S 0.041 ± 0.03; T 0.07 ± 0.086; V 0.002 ± 0.06; W -0.103 ± 0.097; Y -0.284 ± 0.091
L43: A -0.931 ± 0.24; C -0.701 ± 0.13; E -0.804 ± 0.16; F -0.645 ± 0.19; G -0.721 ± 0.071; H -0.757 ± 0.29; I -0.251 ± 0.16; M -0.099 ± 0.14; N -0.673 ± 0.32; P -0.992 ± 0.4; Q -0.606 ± 0.22; R -1.01 ± 0.15; S -0.865 ± 0.2; T -0.674 ± 0.27; V -0.81 ± 0.12; Y -0.224 ± 0.15
Y44: A -0.671 ± 0.18; E -0.957 ± 0.27; F -0.069 ± 0.088; G -0.608 ± 0.073; H -0.306 ± 0.15; L -0.648 ± 0.086; N -0.325 ± 0.13; P -0.905 ± 0.21; Q -0.567 ± 0.4
